According to patent US20040253577A1 (SCHERING, published 2004):

Molecular target: the molecule itself
Assay: size exclusion chromatography (Superdex 75), self-association

B1: HCV NS3 helicase subdomain I (181-324,R257E) mutant (enzyme)
chain: SPVFTDNSSPPAVPQSFQVAHLHAPTGSGKSTKVPAAYAAQGYKVLVLNPSVAATLGFGAYMSKAHGVDPNIRTGVETITTGSPITYSTYGKFLADGGCSGGAYDIIICDECHSTDATSILGIGTVLDQAETAGARLVVLATAT
notes: also called subdomain I mutant; product of pNS3(181-324,R257E)
binding result: no binding (tested: 6 mg/ml)
